Experimental data: publication PMC3386970
pKd: −log10 of the molar value.

Tests used:
Assay in all cases: SPR; BIAcore 2000. Aaa, N-Aaa and C-Aaa amine-coupled at low density to a C1 chip (149, 96 and 72 pg/mm^2, nearly equimolar). Fg, Fn or Vn injected as analytes at 50 µl/min, 25°C. KD from the kinetics of the initial phases (binding biphasic at higher concentrations).
[1] = target: autolysin/adhesin Aaa from Staphylococcus aureus (6 x His-Aaa) (Staphylococcus aureus) (UniProt Q2G0U9)
[2] = target: C-terminal CHAP domain of Aaa (6 x His-C-Aaa) (Staphylococcus aureus 4074)
Sequence of C-terminal CHAP domain of Aaa (6 x His-C-Aaa) (Staphylococcus aureus 4074) (P0C1U7 215-334 limits assumed): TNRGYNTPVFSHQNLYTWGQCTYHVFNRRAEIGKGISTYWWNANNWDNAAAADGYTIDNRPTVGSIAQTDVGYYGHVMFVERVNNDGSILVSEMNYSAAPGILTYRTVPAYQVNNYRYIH

[3] = target: N-terminal LysM domain of Aaa (6 x His-N-Aaa) (Staphylococcus aureus 4074)
Sequence of N-terminal LysM domain of Aaa (6 x His-N-Aaa) (Staphylococcus aureus 4074) (P0C1U7 26-214 limits assumed): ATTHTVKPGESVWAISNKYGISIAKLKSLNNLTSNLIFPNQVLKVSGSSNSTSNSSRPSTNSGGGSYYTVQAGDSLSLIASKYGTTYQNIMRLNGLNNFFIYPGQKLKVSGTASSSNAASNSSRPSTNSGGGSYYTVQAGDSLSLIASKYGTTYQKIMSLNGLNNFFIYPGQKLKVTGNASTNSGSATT

Substance | pKd [1] | relative stoichiometry of binding (Aaa : N-Aaa : C-Aaa) [1] | pKd [2] | relative stoichiometry of binding (Aaa : N-Aaa : C-Aaa) [2] | pKd [3] | relative stoichiometry of binding (Aaa : N-Aaa : C-Aaa) [3]
fibrinogen (from UniProt P02671 36-866; P02675 45-491; P02679 27-453) (complex) | 9.12 | 4 | 9.13 | 1 | 9.39 | 2
fibronectin (from UniProt P02751 32-2477) (natural protein) | 8.22 | 2 | 8.17 | 1 | 8.29 | 1
vitronectin (natural protein) | 7.74 | 2 | 7.70 | 1 | 7.74 | 1
